Experimental findings from article PMC7367873, “Dissecting the sequence determinants for dephosphorylation by the catalytic subunits of phosphatases PP1 and PP2A” (Nature Communications, 2020) are described below.

The test system of one assay is GFP-14-3-3β. Kind of assay: GFP-14-3-3β co-IP with LC-MS/MS, untreated GFP-14-3-3β versus GFP control (14-3-3 interactome). Type of assay: binding, human. The conditions noted are these: label-free quantification, 3 replicates each.
Assay [1] relates to GFP-14-3-3β and its binding proteins. Kind of assay: GFP-14-3-3β co-IP with LC-MS/MS label-free quantification, untreated versus PP1c-treated. Conditions: label-free quantification, 3 replicates each. Also on record: species or system human.
Where [2] appears, read: GFP-14-3-3β co-IP LC-MS/MS, untreated vs GFP, student's t-test.
[3] abbreviates: GFP-14-3-3β co-IP LC-MS/MS, PP1 vs untreated, student's t-test.

B1: LSM12 (protein, UniProt Q3MHD2 2-195, looked up)
Protein LSM12: AAPPGEYFSVGSQVSCRTCQEQRLQGEVVAFDYQSKMLALKCPSSSGKPNHADILLINLQYVSEVEIINDRTETPPPLASLNVSKLASKARTEKEEKLSQAYAISAGVSLEGQQLFQTIHKTIKDCKWQEKNIVVMEEVVITPPYQVENCKGKEGSALSHVRKIVEKHFRDVESQKILQRSQAQQPQKEAALSS
On to B1, for which, in the assay with GFP-14-3-3β (log2 difference, pairwise comparison untreated vs GFP), the “Difference (log2), untreated vs GFP” value came out at 1.227. Also, the “Difference (log2), PP1 vs untreated” value in assay [1] (log2 difference, pairwise comparison PP1 vs untreated) turned out to be 1.729.

B2: SMC3 (protein, UniProt Q9UQE7 1-1217, looked up)
Structural maintenance of …: MYIKQVIIQGFRSYRDQTIVDPFSSKHNVIVGRNGSGKSNFFYAIQFVLSDEFSHLRPEQRLALLHEGTGPRVISAFVEIIFDNSDNRLPIDKEEVSLRRVIGAKKDQYFLDKKMVTKNDVMNLLESAGFSRSNPYYIVKQGKINQMATAPDSQRLKLLREVAGTRVYDERKEESISLMKETEGKREKINELLKYIEERLHTLEEEKEELAQYQKWDKMRRALEYTIYNQELNETRAKLDELSAKRETSGEKSRQLRDAQQDARDKMEDIERQVRELKTKISAMKEEKEQLSAERQEQIKQRTKLELKAKDLQDELAGNSEQRKRLLKERQKLLEKIEEKQKELAETEPKFNSVKEKEERGIARLAQATQERTDLYAKQGRGSQFTSKEERDKWIKKELKSLDQAINDKKRQIAAIHKDLEDTEANKEKNLEQYNKLDQDLNEVKARVEELDRKYYEVKNKKDELQSERNYLWREENAEQQALAAKREDLEKKQQLLRAATGKAILNGIDSINKVLDHFRRKGINQHVQNGYHGIVMNNFECEPAFYTCVEVTAGNRLFYHIVDSDEVSTKILMEFNKMNLPGEVTFLPLNKLDVRDTAYPETNDAIPMISKLRYNPRFDKAFKHVFGKTLICRSMEVSTQLARAFTMDCITLEGDQVSHRGALTGGYYDTRKSRLELQKDVRKAEEELGELEAKLNENLRRNIERINNEIDQLMNQMQQIETQQRKFKASRDSILSEMKMLKEKRQQSEKTFMPKQRSLQSLEASLHAMESTRESLKAELGTDLLSQLSLEDQKRVDALNDEIRQLQQENRQLLNERIKLEGIITRVETYLNENLRKRLDQVEQELNELRETEGGTVLTATTSELEAINKRVKDTMARSEDLDNSIDKTEAGIKELQKSMERWKNMEKEHMDAINHDTKELEKMTNRQGMLLKKKEECMKKIRELGSLPQEAFEKYQTLSLKQLFRKLEQCNTELKKYSHVNKKALDQFVNFSEQKEKLIKRQEELDRGYKSIMELMNVLELRKYEAIQLTFKQVSKNFSEVFQKLVPGGKATLVMKKGDVEGSQSQDEGEGSGESERGSGSQSSVPSVDQFTGVGIRVSFTGKQGEMREMQQLSGGQKSLVALALIFAIQKCDPAPFYLFDEIDQALDAQHRKAVSDMIMELAVHAQFITTTFRPELLESADKFYGVKFRNKVSHIDVITAEMAKDFVEDDTTHG
As to B2, the “Difference (log2), untreated vs GFP” value with GFP-14-3-3β (setting [2]) is given as 0.1297 log2. Also, the “Difference (log2), PP1 vs untreated” value in assay [1] (setting [3]) is recorded as -0.1648 log2.

B3: DSG2 (protein, UniProt Q14126 50-1118, looked up)
Desmoglein-2: AWITAPVALREGEDLSKKNPIAKIHSDLAEERGLKITYKYTGKGITEPPFGIFVFNKDTGELNVTSILDREETPFFLLTGYALDARGNNVEKPLELRIKVLDINDNEPVFTQDVFVGSVEELSAAHTLVMKINATDADEPNTLNSKISYRIVSLEPAYPPVFYLNKDTGEIYTTSVTLDREEHSSYTLTVEARDGNGEVTDKPVKQAQVQIRILDVNDNIPVVENKVLEGMVEENQVNVEVTRIKVFDADEIGSDNWLANFTFASGNEGGYFHIETDAQTNEGIVTLIKEVDYEEMKNLDFSVIVANKAAFHKSIRSKYKPTPIPIKVKVKNVKEGIHFKSSVISIYVSESMDRSSKGQIIGNFQAFDEDTGLPAHARYVKLEDRDNWISVDSVTSEIKLAKLPDFESRYVQNGTYTVKIVAISEDYPRKTITGTVLINVEDINDNCPTLIEPVQTICHDAEYVNVTAEDLDGHPNSGPFSFSVIDKPPGMAEKWKIARQESTSVLLQQSEKKLGRSEIQFLISDNQGFSCPEKQVLTLTVCECLHGSGCREAQHDSYVGLGPAAIALMILAFLLLLLVPLLLLMCHCGKGAKGFTPIPGTIEMLHPWNNEGAPPEDKVVPSFLPVDQGGSLVGRNGVGGMAKEATMKGSSSASIVKGQHEMSEMDGRWEEHRSLLSGRATQFTGATGAIMTTETTKTARATGASRDMAGAQAAAVALNEEFLRNYFTDKAASYTEEDENHTAKDCLLVYSQEETESLNASIGCCSFIEGELDDRFLDDLGLKFKTLAEVCLGQKIDINKEIEQRQKPATETSMNTASHSLCEQTMVNSENTYSSGSSFPVPKSLQEANAEKVTQEIVTERSVSSRQAQKVATPLPDPMASRNVIATETSYVTGSTMPPTTVILGPSQPQSLIVTERVYAPASTLVDQPYANEGTVVVTERVIQPHGGGSNPLEGTQHLQDVPYVMVRERESFLAPSSGVQPTLAMPNIAVGQNVTVTERVLAPASTLQSSYQIPTENSMTARNTTVSGAGVPGPLPDFGLEESGHSNSTITTSSTRVTKHSTVQHSYS
With B3, the “Difference (log2), untreated vs GFP” value in the assay on GFP-14-3-3β (setting [2]) is on record as -0.9434 log2. The “Difference (log2), PP1 vs untreated” value in assay [1] (setting [3]) is reported as -0.1595 log2.

B4: MYO1E (protein, UniProt Q12965 1-1108, looked up)
Unconventional myosin-Ie: MGSKGVYQYHWQSHNVKHSGVDDMVLLSKITENSIVENLKKRYMDDYIFTYIGSVLISVNPFKQMPYFGEKEIEMYQGAAQYENPPHIYALADNMYRNMIIDRENQCVIISGESGAGKTVAAKYIMSYISRVSGGGTKVQHVKDIILQSNPLLEAFGNAKTVRNNNSSRFGKYFEIQFSPGGEPDGGKISNFLLEKSRVVMRNPGERSFHIFYQLIEGASAEQKHSLGITSMDYYYYLSLSGSYKVDDIDDRREFQETLHAMNVIGIFAEEQTLVLQIVAGILHLGNISFKEVGNYAAVESEEFLAFPAYLLGINQDRLKEKLTSRQMDSKWGGKSESIHVTLNVEQACYTRDALAKALHARVFDFLVDSINKAMEKDHEEYNIGVLDIYGFEIFQKNGFEQFCINFVNEKLQQIFIELTLKAEQEEYVQEGIRWTPIEYFNNKIVCDLIENKVNPPGIMSILDDVCATMHAVGEGADQTLLQKLQMQIGSHEHFNSWNQGFIIHHYAGKVSYDMDGFCERNRDVLFMDLIELMQSSELPFIKSLFPENLQADKKGRPTTAGSKIKKQANDLVSTLMKCTPHYIRCIKPNETKKPRDWEESRVKHQVEYLGLKENIRVRRAGYAYRRIFQKFLQRYAILTKATWPSWQGEEKQGVLHLLQSVNMDSDQFQLGRSKVFIKAPESLFLLEEMRERKYDGYARVIQKSWRKFVARKKYVQMREEASDLLLNKKERRRNSINRNFIGDYIGMEEHPELQQFVGKREKIDFADTVTKYDRRFKGVKRDLLLTPKCLYLIGREKVKQGPDKGLVKEVLKRKIEIERILSVSLSTMQDDIFILHEQEYDSLLESVFKTEFLSLLAKRYEEKTQKQLPLKFSNTLELKLKKENWGPWSAGGSRQVQFHQGFGDLAVLKPSNKVLQVSIGPGLPKNSRPTRRNTTQNTGYSSGTQNANYPVRAAPPPPGYHQNGVIRNQYVPYPHAPGSQRSNQKSLYTSMARPPLPRQQSTSSDRVSQTPESLDFLKVPDQGAAGVRRQTTSRPPPAGGRPKPQPKPKPQVPQCKALYAYDAQDTDELSFNANDIIDIIKEDPSGWWTGRLRGKQGLFPNNYVTKI
For B4, the “Difference (log2), untreated vs GFP” value in the assay with GFP-14-3-3β (setting [2]) was found to be 1.374 log2. Further, the “Difference (log2), PP1 vs untreated” value in assay [1] (setting [3]) was -0.1954 log2.
